Laboratory results reported in the RNAGym collection of RNA variant scans (doi:10.7554/elife.90254).

B1: LINE1-mini (parent)
chain: GGCAGAGCUCAACACAGCGUGGCAAAGUGGCUGUGGCUAGACUGCC

Variants of: B1
Assay: self-cleavage, relative activity (ratio to wild type); higher = more cleavage; in vitro, sequencing; the parent is a self-cleaving ribozyme

Variant	self-cleavage
GGCAGAGCUCAACACAGCGUGGCAAAGUAGCUGUGGCUAUACUGCC	0.12
GGCAGAGCUCAACACAGCGUGGCAAAGUAGCUGUGGCUAAACUGCC	0.11
GGCAGAGCUCAACACAGCGUGGCAAAGUAGCUGUGGCUACACUGCC	0.08
GGCAGAGCUCAACACAGCGUGGCAAAGGAGCUGUGGCUAGACUGCC	0.34
GGCAGAGCUCAACACAGCGUGGCAAAGGCGCUGUGGCUAGACUGCC	0.53
GGCAGAGCUCAACACAGCGUGGCAAAGGUGCUGUGGCUAGACUGCC	0.61
GGCAGAGCUCAACACAGCGUGGCAAAGGGGCUAUGGCUAGACUGCC	0.11
GGCAGAGCUCAACACAGCGUGGCAAAGGGGCUUUGGCUAGACUGCC	0.06
GGCAGAGCUCAACACAGCGUGGCAAAGGGGCUCUGGCUAGACUGCC	0.05
GGCAGAGCUCAACACAGCGUGGCAAAGGGGCUGGGGCUAGACUGCC	0.23
GGCAGAGCUCAACACAGCGUGGCAAAGGGGCUGAGGCUAGACUGCC	0.26
GGCAGAGCUCAACACAGCGUGGCAAAGGGGCUGCGGCUAGACUGCC	0.11
GGCAGAGCUCAACACAGCGUGGCAAAGUAGCUGUGUCUAGACUGCC	0.09
GGCAGAGCUCAACACAGCGUGGCAAAGUAGCUGUGACUAGACUGCC	0.11
GGCAGAGCUCAACACAGCGUGGCAAAGUAGCUGUGCCUAGACUGCC	0.09
GGCAGAGCUCAACACAGCGUGGCAAAGGGGUUGUGGCUAGACUGCC	0.47
GGCAGAGCUCAACACAGCGUGGCAAAGGGGAUGUGGCUAGACUGCC	0.22
GGCAGAGCUCAACACAGCGUGGCAAAGGGGGUGUGGCUAGACUGCC	0.28
GGCAGAGCUCAACACAGCGUGGCAAAGUAGCUGUGGCUAGGCUGCC	0.32

Variant	self-cleavage
GGCAGAGCUCAACACAGCGUGGCAAAGUAGCUGUGGCUAGCCUGCC	0.05
GGCAGAGCUCAACACAGCGUGGCAAAGUAGCUGUGGCUAGUCUGCC	0.74
GGCAGAGCUCAACACAGCGUGGCAAAGGGGCUGUGGGUAGACUGCC	0.03
GGCAGAGCUCAACACAGCGUGGCAAAGGGGCUGUGGAUAGACUGCC	0.03
GGCAGAGCUCAACACAGCGUGGCAAAGGGGCUGUGGUUAGACUGCC	0.03
GGCAGAGCUCAACACAGCGUGGCAAAGGGGCUGUGGCUAGACUGGC	0.27
GGCAGAGCUCAACACAGCGUGGCAAAGGGGCUGUGGCUAGACUGUC	0.92
GGCAGAGCUCAACACAGCGUGGCAAAGGGGCUGUGGCUAGACUGAC	0.44
GGCAGAGCUCAACACAGCGUGGCAAAGUAGAUGUGGCUAGACUGCC	0.43
GGCAGAGCUCAACACAGCGUGGCAAAGUAGUUGUGGCUAGACUGCC	0.95
GGCAGAGCUCAACACAGCGUGGCAAAGUAGGUGUGGCUAGACUGCC	0.39
GGCAGAGCUCAACACAGCGUGGCAAAGCGGCUGUGGCAAGACUGCC	0.1
GGCAGAGCUCAACACAGCGUGGCAAAGCGGCUGUGGCGAGACUGCC	0.01
GGCAGAGCUCAACACAGCGUGGCAAAGGGGCUGUGGCUAGACAGCC	0.06
GGCAGAGCUCAACACAGCGUGGCAAAGGGGCUGUGGCUAGACGGCC	0
GGCAGAGCUCAACACAGCGUGGCAAAGGGGCUGUGGCUAGACCGCC	0.08
GGCAGAGCUCAACACAGCGUGGCAAAGGGUCUGUGGCUAGACUGCC	0.77
GGCAGAGCUCAACACAGCGUGGCAAAGGGCCUGUGGCUAGACUGCC	0.77
GGCAGAGCUCAACACAGCGUGGCAAAGGGACUGUGGCUAGACUGCC	0.9

Variant	self-cleavage
GGCAGAGCUCAACACAGCGUGGCAAAGGGGCUGUGGCUAUACUGCC	0.09
GGCAGAGCUCAACACAGCGUGGCAAAGGGGCUGUGGCUACACUGCC	0.07
GGCAGAGCUCAACACAGCGUGGCAAAGGGGCUGUGGCUAAACUGCC	0.12
GGCAGAGCUCAACACAGCGUGGCAAAGUAGCUGUGGCUGGACUGCC	0.07
GGCAGAGCUCAACACAGCGUGGCAAAGUAGCUGUGGCUUGACUGCC	0.93
GGCAGAGCUCAACACAGCGUGGCAAAGUAGCUGUGGCUCGACUGCC	0.21
GGCAGAGCUCAACACAGCGUGGCAAAGUAGCUGUCGCUAGACUGCC	0.09
GGCAGAGCUCAACACAGCGUGGCAAAGUAGCUGUAGCUAGACUGCC	0.23
GGCAGAGCUCAACACAGCGUGGCAAAGUAGCUGUUGCUAGACUGCC	0.15
GGCAGAGCUCAACACAGCGUGGCAAAGGGGCUGUGGCUAGACUGCC	0.64
GGCAGAGCUCAACACAGCGUGGCAAAGGGGCCGUGGCUAGACUGCC	0.27
GGCAGAGCUCAACACAGCGUGGCAAAGGGGCGGUGGCUAGACUGCC	0.24
GGCAGAGCUCAACACAGCGUGGCAAAGGGGCAGUGGCUAGACUGCC	0.05
GGCAGAGCUCAACACAGCGUGGCAAAGGGGCUGUGGCUAGCCUGCC	0.04
GGCAGAGCUCAACACAGCGUGGCAAAGGGGCUGUGGCUAGUCUGCC	0.52
GGCAGAGCUCAACACAGCGUGGCAAAGGGGCUGUGGCUAGGCUGCC	0.27
GGCAGAGCUCAACACAGCGUGGCAAAGUAGCUGUGGUUAGACUGCC	0.05
GGCAGAGCUCAACACAGCGUGGCAAAGUAGCUGUGGAUAGACUGCC	0.1
